Results on one substance are retold here after article PMC8188212, “Multi‐Arm PEG/Peptidomimetic Conjugate Inhibitors of DR6/APP Interaction Block Hematogenous Tumor Cell Extravasation” (Advanced Science, 2021).

The Kd is the concentration at which binding is half-saturated.

The target in one series is T1, DR6 protein (Homo sapiens, UniProt O75509).
T1 construct: purchased Sino Biology, Inc. (Shanghai, China)
T1 sequence (O75509 42-655): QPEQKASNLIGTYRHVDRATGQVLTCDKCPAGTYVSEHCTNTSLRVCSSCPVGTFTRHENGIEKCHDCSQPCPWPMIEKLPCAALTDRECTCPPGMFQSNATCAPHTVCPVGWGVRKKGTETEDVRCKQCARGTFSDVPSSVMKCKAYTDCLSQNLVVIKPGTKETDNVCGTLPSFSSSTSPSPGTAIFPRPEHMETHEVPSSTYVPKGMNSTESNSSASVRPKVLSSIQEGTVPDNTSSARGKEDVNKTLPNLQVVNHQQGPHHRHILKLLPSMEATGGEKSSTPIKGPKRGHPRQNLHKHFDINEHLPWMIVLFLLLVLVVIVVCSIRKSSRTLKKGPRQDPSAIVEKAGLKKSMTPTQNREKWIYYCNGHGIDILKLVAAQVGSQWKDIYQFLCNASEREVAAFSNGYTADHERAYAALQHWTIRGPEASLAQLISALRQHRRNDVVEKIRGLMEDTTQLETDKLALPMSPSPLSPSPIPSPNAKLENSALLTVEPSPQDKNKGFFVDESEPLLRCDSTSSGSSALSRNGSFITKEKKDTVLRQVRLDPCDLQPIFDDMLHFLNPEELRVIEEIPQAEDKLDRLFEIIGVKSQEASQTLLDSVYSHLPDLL
The series can be described thus: KD of DR6-targeting peptides for binding to DR6 protein by MST. On the procedure:
For labeling DR6 protein with Red‐tris‐NTA second‐generation dye, equal volume of DR6 protein (200 × 10^–9 M) and dye (100 × 10^–9 M) were mixed. The solution was incubated for 30 min at room temperature and centrifuged for 10 min at 4 ℃ and 15 000 × g. The DR6 protein was labeled and ready for the binding assay. Prepare 25 µL of the DR6‐targeting peptides at 20 × 10^–6 M and add 10 µL of the PBS‐T into the PCR tubes 2–12. Transfer 20 µL DR6‐targeting peptides into the PCR tube 1 and then transfer 10 µL of the DR6‐targeting peptides from tube 1 to tube 2 with a pipette and mix by pipetting up and down multiple times. Transfer 10 µL to tube 3 and mix. Repeat the procedure for tube 4–12. Add 10 µL of labeled protein to each tube (1–12) and mix by pipetting. The final DR6 protein concentration was 50× 10^−9 M. Load the capillaries and measure the samples by NanoTemper Monolith NT.015.^[ ^51 , ^52 ^]

For another series, the system named is HUVECs. The series is described as follows: Co-culture of TCs and HUVECs, TC-induced HUVECs necroptosis. The class given is cell-based, human. To be noted: co-culture with GFP-B16F10, GFP-SGC-996, GFP-LLC1 for 24 h; peptides 1 × 10^–6 M; Hoechst 33342/EthD-III staining; n = 3. On the procedure: For co‐culture experiment, HUVECs (1 × 10^5) were cultured for 24 h in six‐well plates and 5 × 10^4 GFP‐expressing TCs (GFP‐B16F10, GFP‐SGC‐996, and GFP‐LLC1) were added alone or in the presence of the indicated substances onto the HUVECs monolayer and cultured for 24 h: peptides (1 × 10^–6 M), Nec‐1 (30 × 10^–6 M), and zVAD (100 × 10^–6 M). Then, cells were stained with Hoechst 33342 and EthD‐III, and observed by fluorescence microscope. Cell number was determined by counting Hoechst‐33342‐positive cells, and cell death was determined by counting EthD‐III‐positive nuclei.^[ ^9 ^]

A short description of series [1]: DAPI staining of lung sections after injection of FITC-labeled ligand. The class given is in vivo. To be noted: FITC-labeled ligand intravenously, lungs isolated 30 min later, confocal. On the procedure:
FITC‐labeled AHP‐DRI‐12 and PEG‐tAHP‐DRI were injected intravenously and 30 min later, lungs were isolated to prepare frozen sections. The frozen sections were stained with DAPI. The representative images were taken on a confocal microscope.

Series [2] can be described thus: Pharmacokinetic study after intravenous injection. The class given is in vivo. To be noted: SD rats, FITC-labeled. Here is the method: To investigate the pharmacokinetic profile of AHP‐DRI‐12 and PEG‐tAHP‐DRI, SD rats were intravenously injected with FITC‐labeled AHP‐DRI‐12 and PEG‐tAHP‐DRI and blood samples were collected at 0.5, 1, 2, 4, 6, 24, 30, 48, 54, and 72 h. The DR6‐targeting peptide level of blood samples was measured by a microplate reader.

Series [3] deals with RIPK1, RIPK3, MLKL and their phosphorylated states in HUVECs. The series is described as follows: Western blot of necroptosis pathway proteins. The class given is cell-based, human. Particulars: 24 h, 0.1, 1.0, 10 × 10^–6 M AHP-DRI-12. Here is the method: Western blot assay was conducted to examine the expression level of RIPK1, RIPK3, MLKL, and their phosphorylated states that were downstream protein of DR6. Briefly, 5 × 10^5 HUVECs were added in six‐well plates and grown overnight. Next day, HUVECs were treated with TSZ, AHP‐DRI‐12, and PEG‐tAHP‐DRI (0.1 × 10^–6, 1.0 × 10^–6, 10 × 10^–6 M AHP‐DRI‐12), respectively. After incubating for 24 h, HUVECs were washed with PBS, harvested, and mixed with 150 µL cell lysate buffer/well (Beyotime, China). Protein samples were collected after incubation at 4 ℃ for 30 min. Protein samples were centrifuged at 4 °C and 12 000 rpm for 10 min, and the supernatant was collected as samples. Each sample was then separated by 12% SDS–PAGE, followed by transferring to polyvinylidene difluoride membranes. Finally, samples were incubated with antibodies. HRP‐labeled secondary antibodies were added and measured using an imaging system.

Series [4] can be described thus: In vivo safety analysis in healthy mice. To be noted: intravenous. Details: species or system C57BL/6 mice. On the procedure: For evaluating the toxicity of peptides in vivo, 6 week old healthy mice were intravenously injected with AHP‐DRI‐12 and PEG‐tAHP‐DRI (0.2 µg g^–1 AHP‐DRI‐12). After 2 and 15 days, mice were sacrificed and serum samples were collected for the biochemical analysis (ALT, AST, BRU, and URE). Tissue samples from various organs were collected for tissue sections. The tissue sections were analyzed by H&E staining and immunohistochemistry analysis.

Series [5] can be described thus: DLS analysis of size in solution. The format is physicochemical. On the procedure:
AHP‐DRI‐12 with additional Cys residue at the C‐terminal and 4‐arm PEG5k maleimide was dissolved in PBS (0.1 M, pH = 8) at a molar ratio of 8:1. The reaction mixture was stirred for 4 h at room temperature and then dialyzed in a Slide‐A‐Lyzer dialysis cassette (Thermo Fisher Scientific, Shanghai, China) (MWCO: 3500 Da) against water. The dialysate containing the pure product was lyophilized. The products were confirmed by nuclear magnetic resonance (^1H NMR) spectra using a Bruker Avance 500 (500 MHz) spectrometer (Beijing, China).

The mark [6] stands for this setting: healthy C57BL/6 mice, day 2 or 15.

“Also recorded” adds a separate entry of the source. Square brackets hold non-standard residues; d marks the D form. Side chains are listed from the residue outwards. Ends that are not written are not given here. maleimide = maleimide: 4-arm PEG5k maleimide reacting with the C-terminal Cys thiol

For the substance “PEG-tAHP-DRI: tetra-(D-retro-inverso isomer of AHP-12) substitued 4-arm PEG5k ([dP][dT][dT][dA][dD][dI][dT]C([maleimide-4‑arm PEG5k]); also: four peptides on one 4-arm PEG5k)”, the Kd with DR6 protein (RED-tris-NTA labeled DR6 protein, final 50 × 10^−9 M, PBS-T, main text and Figure 2B-D, read-out: KD) is roughly 50 nM. Besides, the “binding affinity to DR6 relative to AHP-DRI-12” value with DR6 protein (from KD values) is “almost fourfold greater binding affinity”. For the same substance, the “inhibition of TCs-induced HUVECs necroptosis” value with HUVECs was “strongest potent inhibitory effect on HUVECs necroptosis; also recorded: much less amount of necroptotic HUVECs”. The “binding potency and proteolytic stability in vivo by FITC fluorescence on lung frozen sections” value in series [1] is on record as “best proteolytic stability”. Further, the “half-life (T1/2)” value in series [2] (blood samples 0.5-72 h, microplate reader, n = 3) is given as 11.1 h. In addition, the “area under the curve (AUC0-72)” value in series [2] (compared with AHP-DRI-12) is “significantly larger”. The “native activation of necroptosis pathway (expression levels of p-RIPK1, p-RIPK3, p-MLKL)” value in series [3] is “could not initialize necroptosis pathway”. In series [4] (setting [6]), the “apoptotic cells in tissues, TUNEL staining” value is given as “no obvious increase in apoptotic cells”; the “damage to vessels, CD31 staining” value is reported as “could not cause damage to the vessels”; the “downstream signaling pathway of DR6 (p-RIPK1, p-IκB-α, caspase 8 staining)” value is “could not be impacted”. Besides, the “damage to liver or kidney, blood biochemical indexes (ALT, AST, BRU, URE)” value in series [4] (healthy mice, 0.2 µg g^–1 AHP-DRI-12, sacrificed day 2 or day 15) is given as “could not cause any damage to liver or kidney”. Moreover, the “size distribution in solution (hydration dynamic radius, DLS)” value in series [5] is on record as “≈ 10 nm”.
